Reference: US20070203325A1 (published 2007)

Assays:
GST-Impα (Rch1) = GST-Impα (Rch1) (human, UniProt P52292 1-529); assay: GST pull-down of in vitro translated 35S-labelled protein (0.25% NP40), autoradiography
GST-impβ = target: T1, GST-impβ (UniProt Q14974 1-876); assay: as above
T1 construct: also called Imps
T1 sequence (Q14974 whole entry): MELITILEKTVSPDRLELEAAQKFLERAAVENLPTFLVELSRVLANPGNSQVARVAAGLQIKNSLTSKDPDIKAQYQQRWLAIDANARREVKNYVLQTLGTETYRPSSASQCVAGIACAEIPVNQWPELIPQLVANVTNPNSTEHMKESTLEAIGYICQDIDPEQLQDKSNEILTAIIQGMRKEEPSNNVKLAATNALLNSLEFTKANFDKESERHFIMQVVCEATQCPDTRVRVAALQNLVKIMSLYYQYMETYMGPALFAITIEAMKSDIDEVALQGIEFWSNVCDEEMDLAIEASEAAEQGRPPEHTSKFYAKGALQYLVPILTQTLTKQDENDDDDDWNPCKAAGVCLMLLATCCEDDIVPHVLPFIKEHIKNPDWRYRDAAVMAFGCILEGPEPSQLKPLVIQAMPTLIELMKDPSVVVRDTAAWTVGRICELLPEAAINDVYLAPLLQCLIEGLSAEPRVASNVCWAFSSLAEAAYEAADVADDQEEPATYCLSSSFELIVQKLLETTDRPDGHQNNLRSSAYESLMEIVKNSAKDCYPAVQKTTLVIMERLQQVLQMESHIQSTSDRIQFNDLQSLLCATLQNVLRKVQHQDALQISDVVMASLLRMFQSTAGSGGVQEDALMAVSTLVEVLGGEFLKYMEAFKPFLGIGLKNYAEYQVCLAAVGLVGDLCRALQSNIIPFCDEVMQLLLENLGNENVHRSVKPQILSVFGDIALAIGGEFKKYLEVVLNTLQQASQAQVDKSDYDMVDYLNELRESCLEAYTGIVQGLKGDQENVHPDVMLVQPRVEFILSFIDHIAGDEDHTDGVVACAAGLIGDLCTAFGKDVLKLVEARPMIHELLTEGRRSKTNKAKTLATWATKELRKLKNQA

B1: T7-CAT (enzyme)
chain: MEKKITGYTTVDISQWHRKEHFEAFQSVAQCTYNQTVQLDITAFLKTVKKNKHKFYPAFIHILARLMNAHPEFRMAMKDGELVIWDSVHPCYTVFHEQTETFSSLWSEYHDDFRQFLHIYSQDVACYGENLAYFPKGFIENMFFVSANPWVSFTSFDLNVANMDNFFAPVFTMGKYYTQGDKVLMPLAIQVHHAVCDGFHVGRMLNELQQYCDEWQGGA
binding result (GST-Impα (Rch1)): no binding
binding result (GST-impβ): no binding
